Test results published in doi:10.1101/2022.03.18.484873 (bioRxiv, 2022).

B1: P2G3 human monoclonal antibody (P2G3 LS, human IgG1) (antibody, V domains shown)
VH: EVQLVESGGGLVQPGRSLRLSCAASGFRFDDYALHWVRQAPEKGLEWVSGISWNSNNIGYAESVKGRFTISRDTAKKSLYLQMNDLRAEDTALYYCVKDRHYDSSGYFVNGFDIWGQGTLVTVSA
VL: DIQLTQSPSFLSASVGDRVTVTCRASQGISSYVAWYQQKAGKAPTLLIYTASTLQSGVPSRFSGSGSGTEFTLTISSLQPEDFATYYCQQLHSYPVTFGQGTRLDIE
B2: P5C3 human monoclonal antibody (P5C3 LS) (antibody, V domains shown)
VH: QMQLVQSGPEVKKPGTSVKVSCKASGFTFTSSAVQWVRQARGQRLEWIGWIVVGSGNTDYAQQFQERVTITRDMSTSTAYMELSSLGSEDTAVYYCAAPNCSGGSCYDGFDLWGQGTMVTVSS
VL: EIVLTQSPGTLSLSPGERATLSCRGSQSVRSSYLGWYQQKPGQAPRLLIYGASSRATGIPDRFSGSGSGTDFTLTISRLEPEDFAVYYCQQYGSSPWTFGQGTKVEIK

Target: original 2019-nCoV Spike RBD protein (SARS-CoV-2, original 2019-nCoV (Wuhan), UniProt P0DTC2)
Assay: Luminex bead-based competitive binding assay

Binder	binding result
B1	binds
B2	binds
